Test results: article PMC8034431

Assays:
[1] = target: wild-type FLT3 ligand (FLWT); test: SEC-MALS; ligand mixed with FLT3_(D1-D5) (20% molar excess of FL_(L27D)); Superdex 200 Increase, HBS (20 mM HEPES pH 7.4, 150 mM NaCl), 0.5 ml/min, 25 °C; glycoprotein conjugate analysis; N for FLWT counts FLT3 molecules for each dimeric FLWT
[2] = target: human FLT3 domains 1-5 (FLT3_(D1-D5)) (human) (UniProt P36888); test: as above

Row | stoichiometry N [1] | stoichiometry N [2] | Molecule
1 | 2 |  | human FLT3 domains 1-5 (FLT3_(D1-D5)) (from UniProt P36888 27-541) (domain or fragment)
2 |  | 1 | FLT3 ligand Leu27Asp mutant (FL_(L27D)), as produced (ligand) TQDCSFQHSPISSDFAVKIRELSDYLDQDYPVTVASNLQDEELCGGLWRLVLAQRWMERLKTVAGSKMQGLLERVNTEIHFVTKCAFQPPPSCLRFVQTNISRLLQETSEQLVALKPWITRQNFSRCLELQCQP
